The results in this text go back to patent publication US20150344570A1 (published 2015).

T1: FcγRIIa R (extracellular domain, His tag at the C terminus) (human, UniProt P12318 34-217)
T1 construct: extracellular domain; Soluble analyte in Biacore; also called FcgRIIa R type; 2aR
T1 sequence (looked up): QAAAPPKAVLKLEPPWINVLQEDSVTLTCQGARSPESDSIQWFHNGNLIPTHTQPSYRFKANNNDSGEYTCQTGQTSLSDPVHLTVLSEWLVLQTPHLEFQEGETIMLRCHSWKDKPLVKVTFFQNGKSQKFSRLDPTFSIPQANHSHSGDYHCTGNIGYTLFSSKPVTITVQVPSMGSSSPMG

B1: GpH7-A5/GpH7-B3 variant K326_16H/GpL16-k0 (antibody, human IgG1, kappa)
heavy 1: not shown
heavy 2: not shown
light: DIVMTQSPLSLPVTPGEPASISCQASESLVHSNRNTYLHWYLQKPGQSPQLLIYKVSNRFSGVPDRFSGSGSGTDFTLKISRVEAEDVGVYYCSQNTHVPPTFGQGTKVEIERTVAAPSVFIFPPSDEQLKSGTASVVCLLNNFYPREAKVQWKVDNALQSGNSQESVTEQDSKDSTYSLSSTLTLSKADYEKHKVYACEVTHQGLSSPVTKSFNRGEC
notes: heterodimerized; also called He Ab
B2: GpH7-A5/GpH7-B3 variant K334_16H/GpL16-k0 (antibody, human IgG1, kappa)
heavy 1: not shown
heavy 2: not shown
light: DIVMTQSPLSLPVTPGEPASISCQASESLVHSNRNTYLHWYLQKPGQSPQLLIYKVSNRFSGVPDRFSGSGSGTDFTLKISRVEAEDVGVYYCSQNTHVPPTFGQGTKVEIERTVAAPSVFIFPPSDEQLKSGTASVVCLLNNFYPREAKVQWKVDNALQSGNSQESVTEQDSKDSTYSLSSTLTLSKADYEKHKVYACEVTHQGLSSPVTKSFNRGEC
notes: as for B1
B3: GpH7-A5/GpH7-B3 variant L328_07I/GpL16-k0 (antibody, human IgG1, kappa)
heavy 1: not shown
heavy 2: not shown
light: DIVMTQSPLSLPVTPGEPASISCQASESLVHSNRNTYLHWYLQKPGQSPQLLIYKVSNRFSGVPDRFSGSGSGTDFTLKISRVEAEDVGVYYCSQNTHVPPTFGQGTKVEIERTVAAPSVFIFPPSDEQLKSGTASVVCLLNNFYPREAKVQWKVDNALQSGNSQESVTEQDSKDSTYSLSSTLTLSKADYEKHKVYACEVTHQGLSSPVTKSFNRGEC
notes: as for B1
B4: GpH7-A5/GpH7-B3 variant K334_18N/GpL16-k0 (antibody, human IgG1, kappa)
heavy 1: not shown
heavy 2: not shown
light: DIVMTQSPLSLPVTPGEPASISCQASESLVHSNRNTYLHWYLQKPGQSPQLLIYKVSNRFSGVPDRFSGSGSGTDFTLKISRVEAEDVGVYYCSQNTHVPPTFGQGTKVEIERTVAAPSVFIFPPSDEQLKSGTASVVCLLNNFYPREAKVQWKVDNALQSGNSQESVTEQDSKDSTYSLSSTLTLSKADYEKHKVYACEVTHQGLSSPVTKSFNRGEC
notes: as for B1
B5: GpH7-A5/GpH7-B3 variant K334_15Y/GpL16-k0 (antibody, human IgG1, kappa)
heavy 1: not shown
heavy 2: not shown
light: DIVMTQSPLSLPVTPGEPASISCQASESLVHSNRNTYLHWYLQKPGQSPQLLIYKVSNRFSGVPDRFSGSGSGTDFTLKISRVEAEDVGVYYCSQNTHVPPTFGQGTKVEIERTVAAPSVFIFPPSDEQLKSGTASVVCLLNNFYPREAKVQWKVDNALQSGNSQESVTEQDSKDSTYSLSSTLTLSKADYEKHKVYACEVTHQGLSSPVTKSFNRGEC
notes: as for B1
B6: GpH7-A5/GpH7-B3 variant L328_06M/GpL16-k0 (antibody, human IgG1, kappa)
heavy 1: not shown
heavy 2: not shown
light: DIVMTQSPLSLPVTPGEPASISCQASESLVHSNRNTYLHWYLQKPGQSPQLLIYKVSNRFSGVPDRFSGSGSGTDFTLKISRVEAEDVGVYYCSQNTHVPPTFGQGTKVEIERTVAAPSVFIFPPSDEQLKSGTASVVCLLNNFYPREAKVQWKVDNALQSGNSQESVTEQDSKDSTYSLSSTLTLSKADYEKHKVYACEVTHQGLSSPVTKSFNRGEC
notes: as for B1
B7: GpH7-A5/GpH7-B3 variant K334_14T/GpL16-k0 (antibody, human IgG1, kappa)
heavy 1: not shown
heavy 2: not shown
light: DIVMTQSPLSLPVTPGEPASISCQASESLVHSNRNTYLHWYLQKPGQSPQLLIYKVSNRFSGVPDRFSGSGSGTDFTLKISRVEAEDVGVYYCSQNTHVPPTFGQGTKVEIERTVAAPSVFIFPPSDEQLKSGTASVVCLLNNFYPREAKVQWKVDNALQSGNSQESVTEQDSKDSTYSLSSTLTLSKADYEKHKVYACEVTHQGLSSPVTKSFNRGEC
notes: as for B1
B8: GpH7-A5/GpH7-B3 variant S267_01G/GpL16-k0 (antibody, human IgG1, kappa)
heavy 1: not shown
heavy 2: not shown
light: DIVMTQSPLSLPVTPGEPASISCQASESLVHSNRNTYLHWYLQKPGQSPQLLIYKVSNRFSGVPDRFSGSGSGTDFTLKISRVEAEDVGVYYCSQNTHVPPTFGQGTKVEIERTVAAPSVFIFPPSDEQLKSGTASVVCLLNNFYPREAKVQWKVDNALQSGNSQESVTEQDSKDSTYSLSSTLTLSKADYEKHKVYACEVTHQGLSSPVTKSFNRGEC
notes: as for B1
B9: GpH7-A5/GpH7-B3 variant K326_19Q/GpL16-k0 (antibody, human IgG1, kappa)
heavy 1: not shown
heavy 2: not shown
light: DIVMTQSPLSLPVTPGEPASISCQASESLVHSNRNTYLHWYLQKPGQSPQLLIYKVSNRFSGVPDRFSGSGSGTDFTLKISRVEAEDVGVYYCSQNTHVPPTFGQGTKVEIERTVAAPSVFIFPPSDEQLKSGTASVVCLLNNFYPREAKVQWKVDNALQSGNSQESVTEQDSKDSTYSLSSTLTLSKADYEKHKVYACEVTHQGLSSPVTKSFNRGEC
notes: as for B1
B10: GpH7-A5/GpH7-B3 variant P271_01G/GpL16-k0 (antibody, human IgG1, kappa)
heavy 1: not shown
heavy 2: not shown
light: DIVMTQSPLSLPVTPGEPASISCQASESLVHSNRNTYLHWYLQKPGQSPQLLIYKVSNRFSGVPDRFSGSGSGTDFTLKISRVEAEDVGVYYCSQNTHVPPTFGQGTKVEIERTVAAPSVFIFPPSDEQLKSGTASVVCLLNNFYPREAKVQWKVDNALQSGNSQESVTEQDSKDSTYSLSSTLTLSKADYEKHKVYACEVTHQGLSSPVTKSFNRGEC
notes: as for B1
B11: GpH7-A5/GpH7-B3 variant K334_07I/GpL16-k0 (antibody, human IgG1, kappa)
heavy 1: not shown
heavy 2: not shown
light: DIVMTQSPLSLPVTPGEPASISCQASESLVHSNRNTYLHWYLQKPGQSPQLLIYKVSNRFSGVPDRFSGSGSGTDFTLKISRVEAEDVGVYYCSQNTHVPPTFGQGTKVEIERTVAAPSVFIFPPSDEQLKSGTASVVCLLNNFYPREAKVQWKVDNALQSGNSQESVTEQDSKDSTYSLSSTLTLSKADYEKHKVYACEVTHQGLSSPVTKSFNRGEC
notes: as for B1
B12: GpH7-A5/GpH7-B3 variant L328_03V/GpL16-k0 (antibody, human IgG1, kappa)
heavy 1: not shown
heavy 2: not shown
light: DIVMTQSPLSLPVTPGEPASISCQASESLVHSNRNTYLHWYLQKPGQSPQLLIYKVSNRFSGVPDRFSGSGSGTDFTLKISRVEAEDVGVYYCSQNTHVPPTFGQGTKVEIERTVAAPSVFIFPPSDEQLKSGTASVVCLLNNFYPREAKVQWKVDNALQSGNSQESVTEQDSKDSTYSLSSTLTLSKADYEKHKVYACEVTHQGLSSPVTKSFNRGEC
notes: as for B1
B13: GpH7-A5/GpH7-B3 variant S239_09D/GpL16-k0 (antibody, human IgG1, kappa)
heavy 1: not shown
heavy 2: not shown
light: DIVMTQSPLSLPVTPGEPASISCQASESLVHSNRNTYLHWYLQKPGQSPQLLIYKVSNRFSGVPDRFSGSGSGTDFTLKISRVEAEDVGVYYCSQNTHVPPTFGQGTKVEIERTVAAPSVFIFPPSDEQLKSGTASVVCLLNNFYPREAKVQWKVDNALQSGNSQESVTEQDSKDSTYSLSSTLTLSKADYEKHKVYACEVTHQGLSSPVTKSFNRGEC
notes: as for B1
B14: GpH7-A5/GpH7-B3 variant S267_07I/GpL16-k0 (antibody, human IgG1, kappa)
heavy 1: not shown
heavy 2: not shown
light: DIVMTQSPLSLPVTPGEPASISCQASESLVHSNRNTYLHWYLQKPGQSPQLLIYKVSNRFSGVPDRFSGSGSGTDFTLKISRVEAEDVGVYYCSQNTHVPPTFGQGTKVEIERTVAAPSVFIFPPSDEQLKSGTASVVCLLNNFYPREAKVQWKVDNALQSGNSQESVTEQDSKDSTYSLSSTLTLSKADYEKHKVYACEVTHQGLSSPVTKSFNRGEC
notes: as for B1
B15: GpH7-A5/GpH7-B3 variant K334_03V/GpL16-k0 (antibody, human IgG1, kappa)
heavy 1: not shown
heavy 2: not shown
light: DIVMTQSPLSLPVTPGEPASISCQASESLVHSNRNTYLHWYLQKPGQSPQLLIYKVSNRFSGVPDRFSGSGSGTDFTLKISRVEAEDVGVYYCSQNTHVPPTFGQGTKVEIERTVAAPSVFIFPPSDEQLKSGTASVVCLLNNFYPREAKVQWKVDNALQSGNSQESVTEQDSKDSTYSLSSTLTLSKADYEKHKVYACEVTHQGLSSPVTKSFNRGEC
notes: as for B1
B16: GpH7-A5/GpH7-B3 variant L328_15Y/GpL16-k0 (antibody, human IgG1, kappa)
heavy 1: not shown
heavy 2: not shown
light: DIVMTQSPLSLPVTPGEPASISCQASESLVHSNRNTYLHWYLQKPGQSPQLLIYKVSNRFSGVPDRFSGSGSGTDFTLKISRVEAEDVGVYYCSQNTHVPPTFGQGTKVEIERTVAAPSVFIFPPSDEQLKSGTASVVCLLNNFYPREAKVQWKVDNALQSGNSQESVTEQDSKDSTYSLSSTLTLSKADYEKHKVYACEVTHQGLSSPVTKSFNRGEC
notes: as for B1
B17: GpH7-A5/GpH7-B3 variant P238_08L/GpL16-k0 (antibody, human IgG1, kappa)
heavy 1: not shown
heavy 2: not shown
light: DIVMTQSPLSLPVTPGEPASISCQASESLVHSNRNTYLHWYLQKPGQSPQLLIYKVSNRFSGVPDRFSGSGSGTDFTLKISRVEAEDVGVYYCSQNTHVPPTFGQGTKVEIERTVAAPSVFIFPPSDEQLKSGTASVVCLLNNFYPREAKVQWKVDNALQSGNSQESVTEQDSKDSTYSLSSTLTLSKADYEKHKVYACEVTHQGLSSPVTKSFNRGEC
notes: as for B1
B18: GpH7-A5/GpH7-B3 variant S267_02A/GpL16-k0 (antibody, human IgG1, kappa)
heavy 1: not shown
heavy 2: not shown
light: DIVMTQSPLSLPVTPGEPASISCQASESLVHSNRNTYLHWYLQKPGQSPQLLIYKVSNRFSGVPDRFSGSGSGTDFTLKISRVEAEDVGVYYCSQNTHVPPTFGQGTKVEIERTVAAPSVFIFPPSDEQLKSGTASVVCLLNNFYPREAKVQWKVDNALQSGNSQESVTEQDSKDSTYSLSSTLTLSKADYEKHKVYACEVTHQGLSSPVTKSFNRGEC
notes: as for B1
B19: GpH7-A5/GpH7-B3 variant S239_01G/GpL16-k0 (antibody, human IgG1, kappa)
heavy 1: not shown
heavy 2: not shown
light: DIVMTQSPLSLPVTPGEPASISCQASESLVHSNRNTYLHWYLQKPGQSPQLLIYKVSNRFSGVPDRFSGSGSGTDFTLKISRVEAEDVGVYYCSQNTHVPPTFGQGTKVEIERTVAAPSVFIFPPSDEQLKSGTASVVCLLNNFYPREAKVQWKVDNALQSGNSQESVTEQDSKDSTYSLSSTLTLSKADYEKHKVYACEVTHQGLSSPVTKSFNRGEC
notes: as for B1
B20: GpH7-A5/GpH7-B3 variant L328_04F/GpL16-k0 (antibody, human IgG1, kappa)
heavy 1: not shown
heavy 2: not shown
light: DIVMTQSPLSLPVTPGEPASISCQASESLVHSNRNTYLHWYLQKPGQSPQLLIYKVSNRFSGVPDRFSGSGSGTDFTLKISRVEAEDVGVYYCSQNTHVPPTFGQGTKVEIERTVAAPSVFIFPPSDEQLKSGTASVVCLLNNFYPREAKVQWKVDNALQSGNSQESVTEQDSKDSTYSLSSTLTLSKADYEKHKVYACEVTHQGLSSPVTKSFNRGEC
notes: as for B1

The target of the assay is T1, FcγRIIa R (extracellular domain, His …). Description: SPR (Biacore), relative binding, control GpH7-A5/GpH7-B3/GpL16-k0 = 100. How it is done:
Analysis of interaction between objective antibody and the FcγR was carried out using Biacore T100 (GE Healthcare). HBS-EP+ (GE Healthcare) was used as the running buffer, and the measurement temperature was set to 25° C. Chips produced by immobilizing the antigen peptide by the amine coupling method to a Series S Sencor Chip CM5 (GE Healthcare), or alternatively, chips produced by allowing preliminarily biotinylated antigen peptides to interact with and immobilize onto a Series S Sensor Chip SA (certified) (GE Healthcare) were used. Antibodies of interest were captured onto an antigen peptide-immobilized chip, and allowed to interact to each FcγR diluted with running buffer. To regenerate and repeatedly use the chip, the antibodies captured on the chip were washed off by reacting 10 mM glycine-HCl, pH 1.5.
In general terms: In SPR one partner is held on a chip, and binding of the other changes the refractive index at the surface.
On to B1, for which the He/Con_2aR was 120 % of control.
Regarding B2, the He/Con_2aR is 109 % of control.
As for B3, the He/Con_2aR was 124 % of control.
The same measure for B4: 112 % of control; for B5: 108 % of control; for B6: 115 % of control.
The same measure for B7: 112 % of control; for B8: 113 % of control; for B9: 129 % of control.
The same measure for B10: 144 % of control; for B11: 114 % of control; for B12: 116 % of control.
For the molecule B13, the He/Con_2aR was 137 % of control.
For B14, the He/Con_2aR was 111 % of control.
To B15 belongs 117 % of control; to B16, 136 % of control; to B17, 140 % of control.
On to B18, for which the He/Con_2aR was 155 % of control.
For the molecule B19, the He/Con_2aR was 128 % of control.
Turning to B20, the He/Con_2aR was 138 % of control.
